Data from US20210163606A1.

Molecular target: Human NRP2 (aa23-855) with C-terminal Avi-, Myc- and His-tags (Human) (UniProt O60462)
Assay: SPR (ProteOn XPR36), antibody captured on anti-human Fab-kappa, NRP2 as analyte, 1:1 Langmuir fit

| Kd | Binder |
| --- | --- |
| 0.17 nM | aNRP2-14v10 (antibody, V domains shown) VH: QLQLVESGGGVVQPGRSLRLSCTVSGFSLTSYGVHWVRQAPGKGLEWVGLIWSGGSTDYSPAFISRFTISEDNSKSTVYLQMNSLRAEDTAVYFCARNSYSSGYYAMDYWGQGTTVTVSS VL: DIQLTQSPSFLSASVGDRVTITCKASQNVGTAVAWYQQKPGKAPKLLIYSASNRYTGVPSRFSGSGSGTEFTLTISSLQPEDFATYYCQQRSRYPPYTFGGGTKVEIK |
| 0.15 nM | aNRP2-14v9 (antibody, V domains shown) VH: QLQLVESGGGVVQPGRSLRLSCTVSGFSLTSYGVHWVRQAPGKGLEWVGLIWSGGSTDYSPAFISRFTISEDNSKSTVYLQMNSLRAEDTAVYFCARNSYSSGYYAMDYWGQGTTVTVSS VL: DIQLTQSPSFLSASVGDRVTITCKASQNVGHAVAWYQQKPGKAPKLLIYSASNRYTGVPSRFSGSGSGTEFTLTISSLQPEDFATYYCQQYSRYPPYTFGGGTKVEIK |
| 0.95 nM | aNRP2-11v7 (antibody, V domains shown) VH: QVQLVQSGAEVKKPGASVKVSCKASGYTFTSFGISWVRQAPGQGLEWIGEIYPRSGNTYYNENFKGRATMTADKSTSTAYMELRSLRSDDTAVYYCARSSGYYGSTPFPYWGQGTLVTVSS VL: DIQMTQSPSSLSASVGDRVTITCRASQDISNYLNWYQQKPGKAVKLLIYYTSRLHSGVPSRFSGSGSGTDYTFTISSLQPEDIATYYCQQGNTLPWTFGGGTKVEIK |

More lines, now with the values behind:

| Binder | Kd |
| --- | --- |
| aNRP2-1v3 (antibody, V domains shown) VH: QVQLVQSGAEVKKPGASVKVSCKASGYTFTSYWMHWVRQAPGQGLEWMGAIYPGNSDTSYNQQFKGRVTMTRDTSTSTVYMELSSLRSEDTAVYYCARRGGGYFDYWGQGTLVTVSS VL: DIQLTQSPSFLSASVGDRVTITCKASQNVGAAVAWYQQKPGKAPKLLIYSASNRYTGVPSRFSGSGSGTEFTLTISSLQPEDFATYYCQQYSSYPLLTFGGGTKVEIK | 17 nM |
| aNRP2-2v4 (antibody, V domains shown) VH: QVQLVQSGAEVKKPGASVKVSCKASGYTFTSYWMHWVRQAPGQGLEWMGVIHPNSASTFYNERFKTRATMTVDRSSSTAYMELSSLRSEDTAVYYCSRPGTVRRSDYWGQGTTVTVSS VL: DVVMTQSPLSLPVTLGQPASISCRSSQNIVHSTGNTYLEWYQQRPGQSPRLLIYKVSNRFSGVPDRFSGSGSGTDFTLKISRVEAEDVGVYYCFQGSHVPWTFGGGTKVEIK | 2.7 nM |
| aNRP2-10v5 (antibody, V domains shown) VH: EVQLVQSGAEVKKPGATVKISCKVSGFNIKDYYIHWVQQAPGKGLEWMGRIDVEDDETKYAPKFQGRVTITADTSTDTAYMELSSLRSEDTAVYYCATPIYGSREAWFAYWGQGTLVTVSS VL: DIQMTQSPSSLSASVGDRVTITCTASSSVSSSYLHWYQQKPGKAPKLLIYRTSNLASGVPSRFSGSGSGTDFTLTISSLQPEDFATYYCHQYYRSPPTFGGGTKVEIK | 0.2 nM |
| aNRP2-10v10 (antibody, V domains shown) VH: EVQLVQSGAEVKKPGATVKISCKVSGFNIKDYYVHWVQQAPGKGLEWMGRIDVEDDETKYAPKFQGRVTITADTSTDTAYMELSSLRSEDTAVYYCATPIYGAREAWFAYWGQGTLVTVSS VL: DIQMTQSPSSLSASVGDRVTITCTASSSVSSSYLHWYQQKPGKAPKLLIYRTSNLASGVPSRFSGSGSGTDFTLTISSLQPEDFATYYCHQYYRSPPTFGGGTKVEIK | 0.029 nM |
| aNRP2-10v13 (antibody, V domains shown) VH: EVQLVQSGAEVKKPGATVKISCKVSGFNIKDYYVHWVQQAPGKGLEWMGRIDVHDDETKYAPKFQGRVTITADTSTDTAYMELSSLRSEDTAVYYCATPIYGAREAWFAYWGQGTLVTVSS VL: DIQMTQSPSSLSASVGDRVTITCTASSSVSSSYLHWYQQKPGKAPKLLIYRTSNLASGVPSRFSGSGSGTDFTLTISSLQPEDFATYYCHQYYRSPPTFGGGTKVEIK | 0.358 nM |

Molecular target: Human NRP2 (aa23-855) with C-terminal Avi-, Myc- and His-tags (Human) (UniProt O60462)
Assay: SPR as described for Table E1 (human NRP2 antigen); the antigen for this mouse-IgG1 surrogate is not said separately

| Kd | Binder |
| --- | --- |
| 0.0599 nM | aNRP2-28v2/4 (antibody, V domains shown) VH: QSVKESEGGLFKPTDTLTLTCTVSGFSLSTYSISWVRQAPGNGLEWIGIIGDAGGIIYATWAKSRSTITRSTALNTVTLKMTGLTAADTATYFCARDGTAFDIWGPGTLVTVSS VL: AYDMTQTPASVEVVVGGTVTIKCQASQSIYSKLGWYQQKPGQPPKLLIYRASTLASGVSSRFKGSGSGTEYTLTISGVQCDDAATYYCQQDYSYINVDNIFGGGTEVVVK |
